Data from patent US20170291939A1 (Novartis, published 2017).
Where two headings read alike, the source gives them in different places.

How the values were obtained:
[1] = target: T1, recombinant huIL-17A (SEQ ID NO: 76) (human, UniProt Q16552 24-155, limits assumed); assay: cell-based or functional assay
T1 sequence: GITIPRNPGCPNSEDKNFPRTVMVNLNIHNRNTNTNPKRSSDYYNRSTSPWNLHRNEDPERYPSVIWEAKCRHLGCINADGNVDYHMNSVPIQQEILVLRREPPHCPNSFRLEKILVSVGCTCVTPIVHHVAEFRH

[2] = target: T2, recombinant huIL-17A/F heterodimer (human, UniProt Q16552 24-155; Q96PD4 31-163, limits assumed); assay: cell-based or functional assay
T2 sequence (looked up) 1: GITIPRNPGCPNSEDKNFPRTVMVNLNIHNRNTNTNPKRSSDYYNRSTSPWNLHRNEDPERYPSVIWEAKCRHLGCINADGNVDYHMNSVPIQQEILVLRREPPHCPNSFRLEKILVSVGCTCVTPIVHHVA
T2 sequence (looked up) 2: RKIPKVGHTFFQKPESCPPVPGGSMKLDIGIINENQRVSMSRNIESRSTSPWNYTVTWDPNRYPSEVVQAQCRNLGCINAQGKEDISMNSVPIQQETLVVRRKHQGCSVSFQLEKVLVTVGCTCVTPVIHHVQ

recombinant huIL-17F [3] = target: T3, recombinant huIL-17F (human, UniProt Q96PD4 31-163); assay: cell-based or functional assay
T3 sequence: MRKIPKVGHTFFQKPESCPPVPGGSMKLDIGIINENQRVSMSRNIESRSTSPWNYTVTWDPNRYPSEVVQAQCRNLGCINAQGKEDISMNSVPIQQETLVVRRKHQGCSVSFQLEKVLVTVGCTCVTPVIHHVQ

recombinant mIL-17A [4] = target: T4, recombinant mIL-17A (mouse, UniProt Q62386 26-158); assay: cell-based or functional assay
T4 sequence: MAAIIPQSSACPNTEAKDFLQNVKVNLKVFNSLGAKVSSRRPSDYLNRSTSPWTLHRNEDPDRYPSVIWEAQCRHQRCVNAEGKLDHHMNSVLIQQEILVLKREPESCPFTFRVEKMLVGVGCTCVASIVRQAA

[5] = target: recombinant mIL-17A/F (R&D Systems Cat#5390-IL) (mouse) (UniProt Q62386); assay: cell-based or functional assay
rat IL-17A = target: T5, rat IL-17A (rat, UniProt Q61453 18-150); assay: cell-based or functional assay
T5 sequence: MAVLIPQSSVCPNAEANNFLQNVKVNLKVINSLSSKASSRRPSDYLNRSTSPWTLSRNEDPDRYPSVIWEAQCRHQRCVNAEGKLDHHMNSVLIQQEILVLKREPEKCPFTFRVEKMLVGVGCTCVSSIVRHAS

[6] = target: T6, recombinant mIL-17F (SEQ ID NO: 84) (mouse, UniProt Q7TNI7 29-161); assay: cell-based or functional assay
T6 sequence: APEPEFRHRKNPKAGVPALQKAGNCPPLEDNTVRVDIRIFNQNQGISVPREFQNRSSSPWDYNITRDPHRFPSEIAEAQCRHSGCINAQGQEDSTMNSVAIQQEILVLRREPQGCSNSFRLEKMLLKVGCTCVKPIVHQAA

[7] = target: T7, human IL-17A (construct not specified) (human, UniProt Q16552 24-155, limits assumed); assay: cell-based or functional assay
T7 sequence: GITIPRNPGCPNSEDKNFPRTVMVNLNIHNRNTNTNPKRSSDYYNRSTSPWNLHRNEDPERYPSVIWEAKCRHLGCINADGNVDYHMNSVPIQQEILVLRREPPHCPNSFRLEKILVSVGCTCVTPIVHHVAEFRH

[8] = target: T1, recombinant huIL-17A (SEQ ID NO: 76); assay: cell-based or functional assay; remark: listed apart in the source
[9] = target: T2, recombinant huIL-17A/F heterodimer; assay: cell-based or functional assay; remark: listed apart in the source
recombinant huIL-17F [10] = target: T3, recombinant huIL-17F; assay: cell-based or functional assay; remark: listed apart in the source
[11] = target: T1, recombinant huIL-17A (SEQ ID NO: 76); assay: cell-based or functional assay; remark: listed apart in the source
[12] = target: T2, recombinant huIL-17A/F heterodimer; assay: cell-based or functional assay; remark: listed apart in the source
recombinant huIL-17F [13] = target: T3, recombinant huIL-17F; assay: cell-based or functional assay; remark: listed apart in the source
[14] = target: T1, recombinant huIL-17A (SEQ ID NO: 76); assay: cell-based or functional assay; remark: listed apart in the source
[15] = target: T1, recombinant huIL-17A (SEQ ID NO: 76); assay: cell-based or functional assay; remark: listed apart in the source
recombinant mIL-17A [16] = target: T4, recombinant mIL-17A; assay: cell-based or functional assay; remark: listed apart in the source
[17] = target: T8, recombinant mIL-17A/F (R&D Systems Cat#5390-IL) (mouse, UniProt Q62386 26-158; Q7TNI7 29-161, limits assumed); assay: cell-based or functional assay
T8 sequence (looked up) 1: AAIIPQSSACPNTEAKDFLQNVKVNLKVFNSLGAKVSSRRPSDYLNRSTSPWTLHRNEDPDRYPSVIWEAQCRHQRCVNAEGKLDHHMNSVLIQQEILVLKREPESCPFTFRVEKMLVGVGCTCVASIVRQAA
T8 sequence (looked up) 2: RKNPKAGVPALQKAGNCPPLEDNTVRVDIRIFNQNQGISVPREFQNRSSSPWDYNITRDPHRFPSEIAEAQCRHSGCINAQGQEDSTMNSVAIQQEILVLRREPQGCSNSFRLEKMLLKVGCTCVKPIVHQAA

recombinant mIL-17A [18] = target: T4, recombinant mIL-17A; assay: cell-based or functional assay; remark: listed apart in the source
[19] = target: T9, human IL-17A biotin (human) (UniProt Q16552); assay: SPR (Biacore), 25° C., biotinylated ligand
T9 sequence (chain, biotinylated, site not given): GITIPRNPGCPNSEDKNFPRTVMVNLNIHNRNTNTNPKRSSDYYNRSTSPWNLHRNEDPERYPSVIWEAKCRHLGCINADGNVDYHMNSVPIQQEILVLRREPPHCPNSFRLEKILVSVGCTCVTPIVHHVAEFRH

Simulect® (1.1% solution, Batch C0011; 831179) (antibody)
IC50, hu-GRO-alpha secretion by BJ cells; IL-17A (30 pM) + TNF-α (6 pM) [1]: > 3 µM | IC50, hu-GRO-alpha secretion by BJ cells; IL-17A (1 nM) [1]: > 100 nM | IC50, huIL-6 secretion by BJ cells; rhuIL-17A (30 pM) + rhuTNF-α (6 pM) [1]: > 3 µM | IC50, huIL-6 secretion by BJ cells; rhuIL-17A (1 nM) [1]: > 100 nM | IC50, hu-GRO-alpha secretion by BJ cells; IL-17A/F (300 pM) + TNF-α (6 pM) [2]: > 3 µM | IC50, hu-GRO-alpha secretion by BJ cells; IL-17A/F (3 nM) [2]: > 100 nM | IC50, huIL-6 secretion by BJ cells; rhuIL-17A/F (300 pM) + rhuTNF-α (6 pM) [2]: > 3 µM | IC50, huIL-6 secretion by BJ cells; rhuIL-17A/F (3 nM) [2]: > 100 nM | IC50, hu-GRO-alpha secretion by BJ cells; IL-17F (10 nM) + TNF-α (6 pM) (recombinant huIL-17F [3]): > 3 µM | IC50, hu-GRO-alpha secretion by BJ cells; IL-17F (30 nM) (recombinant huIL-17F [3]): > 1000 nM | IC50, huIL-6 secretion by BJ cells; rhuIL-17F (10 nM) + rhuTNF-α (6 pM) (recombinant huIL-17F [3]): > 3 µM | IC50, huIL-6 secretion by BJ cells; rhuIL-17F (30 nM) (recombinant huIL-17F [3]): > 1000 nM | IC50, mouse KC secretion by CMT-93 cells; mIL-17A (1 nM) (recombinant mIL-17A [4]): > 3000 nM | IC50, mouse KC secretion by CMT-93 cells; mIL-17A/F (3 nM) [5]: > 3000 nM | IC50, mouse KC secretion by CMT-93 cells; rIL-17A (1 nM) (rat IL-17A): > 3000 nM | IC50, mouse KC secretion by CMT-93 cells; mIL-17F (30 nM) [6]: > 3000 nM

B1: XAB4 (antibody, human IgG1, kappa, V domains shown)
VH: EVQLVESGGDLVQPGGSLRLSCAASGFTFSSYWMSWVRQAPGKGLEWVANIKQDGSEKYYVDSVKGRFTISRDNAKNSLYLQMNSLRAEDTAVYYCARDRGSLYYWGQGTLVTVSS
VL: AIQLTQSPSSLSASVGDRVTITCRPSQGINWELAWYQQKPGKAPKLLIYDASSLEQGVPSRFSGSGSGTDFTLTISSLQPEDFATYYCQQFNSYPLTFGGGTKVEIKR
EC50, T = 0 weeks [7]: 0.048 mg/L | EC50, T = 4 weeks at pH 8, 40° C. (forced deamidation) [7]: 47 ng/ml | IC50, huIL-6 secretion by BJ cells; rhuIL-17A (1 nM) [8]: 0.63 nM | IC50, huIL-6 secretion by BJ cells; rhuIL-17A/F (300 pM) + rhuTNF-α (6 pM) [9]: 0.17 nM | IC50, huIL-6 secretion by BJ cells; rhuIL-17A/F (3 nM) [9]: 1.68 nM | IC50, huIL-6 secretion by BJ cells; rhuIL-17F (10 nM) + rhuTNF-α (6 pM) (recombinant huIL-17F [10]): > 3 µM | IC50, huIL-6 secretion by BJ cells; rhuIL-17F (30 nM) (recombinant huIL-17F [10]): > 3000 nM | IC50, hu-GRO-alpha secretion by BJ cells; IL-17A (30 pM) + TNF-α (6 pM) [11]: 7 pM | IC50, hu-GRO-alpha secretion by BJ cells; IL-17A (1 nM) [11]: 0.35 nM | IC50, hu-GRO-alpha secretion by BJ cells; IL-17A/F (300 pM) + TNF-α (6 pM) [12]: 0.1 nM | IC50, hu-GRO-alpha secretion by BJ cells; IL-17A/F (3 nM) [12]: 1.11 nM | IC50, hu-GRO-alpha secretion by BJ cells; IL-17F (10 nM) + TNF-α (6 pM) (recombinant huIL-17F [13]): > 3 µM | IC50, hu-GRO-alpha secretion by BJ cells; IL-17F (30 nM) (recombinant huIL-17F [13]): > 3000 nM | IC50, huIL-6 secretion by BJ cells; rhuIL-17A (0.5 nM) [14]: 0.55 nM | IC50, huGROα secretion by BJ cells; rhuIL-17A (0.5 nM) [15]: 0.44 nM | IC50, mouse KC secretion by CMT-93 cells; mIL-17A (1 nM) (recombinant mIL-17A [16]): 13.8 nM | IC50, mouse KC secretion by CMT-93 cells; mIL-17A/F (3 nM) [17]: 10.3 nM | IC50, mouse KC secretion by CMT-93 cells; rIL-17A (1 nM) (rat IL-17A): 6.7 nM | IC50, mouse KC secretion by CMT-93 cells; mIL-17F (30 nM) [6]: > 10000 nM | IC50, KC secretion by CMT-93 cells; mIL-17A (0.15 nM) (recombinant mIL-17A [18]): 7 nM

B2: XAB5 (antibody, human IgG1, kappa, V domains shown)
VH: EVQLVESGGDLVQPGGSLRLSCAASGFTFSSYWMSWVRQAPGKGLEWVANIKQDGSEKYYVDSVKGRFTISRDNAKNSLYLQMNSLRAEDTAVYYCARDRGSLYYWGQGTLVTVSS
VL: AIQLTQSPSSLSASVGDRVTITCRPSQGINWELAWYQQKPGKAPKLLIYDASSLENGVPSRFSGSGSGTDFTLTISSLQPEDFATYYCQQFNSYPLTFGGGTKVEIKR
EC50, T = 0 weeks [7]: 0.045 mg/L | EC50, T = 4 weeks at pH 8, 40° C. (forced deamidation) [7]: 61 ng/ml | IC50, huIL-6 secretion by BJ cells; rhuIL-17A (0.5 nM) [14]: 0.54 nM | IC50, huGROα secretion by BJ cells; rhuIL-17A (0.5 nM) [15]: 0.46 nM | IC50, KC secretion by CMT-93 cells; mIL-17A (0.15 nM) (recombinant mIL-17A [18]): 7.8 nM

B3: XAB3 (antibody, human IgG1, kappa, V domains shown)
VH: EVQLVESGGDLVQPGGSLRLSCAASGFTFSSYWMSWVRQAPGKGLEWVANIKQDGSEKYYVDSVKGRFTISRDNAKNSLYLQMNSLRAEDTAVYYCARDRGSLYYWGQGTLVTVSS
VL: AIQLTQSPSSLSASVGDRVTITCRPSQGIYWELAWYQQKPGKAPKLLIYDASSLEQGVPSRFSGSGSGTDFTLTISSLQPEDFATYYCQQFNSYPLTFGGGTKVEIKR
EC50, T = 0 weeks [7]: 0.04 mg/L | EC50, T = 4 weeks at pH 8, 40° C. (forced deamidation) [7]: 40 ng/ml | IC50, huIL-6 secretion by BJ cells; rhuIL-17A (0.5 nM) [14]: 0.5 nM | IC50, huGROα secretion by BJ cells; rhuIL-17A (0.5 nM) [15]: 0.42 nM | IC50, KC secretion by CMT-93 cells; mIL-17A (0.15 nM) (recombinant mIL-17A [18]): < 1 nM

B4: XAB4T (Fab, part only; not given: CH1 and tag, part only)
heavy, part: EVQLVESGGDLVQPGGSLRLSCAASGFTFSSYWMSWVRQAPGKGLEWVANIKQDGSEKYYVDSVKGRFTISRDNAKNSLYLQMNSLRAEDTAVYYCARDRGSLYYWGQGTLVTVSSGSGGG
light: AIQLTQSPSSLSASVGDRVTITCRPSQGINWELAWYQQKPGKAPKLLIYDASSLEQGVPSRFSGSGSGTDFTLTISSLQPEDFATYYCQQFNSYPLTFGGGTKVEIKRTVAAPSVFIFPPSDEQLKSGTASVVCLLNNFYPREAKVQWKVDNALQSGNSQESVTEQDSKDSTYSLSSTLTLSKADYEKHKVYACEVTHQGLSSPVTKSFNRGEC
Kd [19]: 0.00768 nM | koff [19]: 3.46e-05 s⁻¹ | kon [19]: 4.51e+06 M⁻¹ s⁻¹
